This is an account of results in patent US9517265B2, “Methods for the prevention and/or treatment of memory impairment” (The Governing Council of the University of Toronto, priority 2010, dated 2016).

For assay [1], the target named is T1, α5GABAARs (Mus musculus, UniProt P22723+Q8BHJ7). Briefly: Fear conditioning after IL-1β or LPS injection. Conditions: for contextual fear memory, WT mice (in words): IL-1β 1 μg kg^−1 i.p. or LPS 125 μg kg^−1 i.p. 3 h before conditioning, inverse agonist co-administered; for cued fear memory to a conditioned tone stimulus (in words): mouse, in vivo. Type of assay: in vivo, mice. How it is done: Pavlovian fear-conditioning tasks were used for behavioral analysis^29. LPS (125 μg kg^−1, i.p., with physiological saline as the vehicle control) or IL-1β (1 μg kg^−1, i.p., with 0.1% bovine serum albumin as the vehicle control) was injected into male 3- to 4-month-old WT and Gabra5−/− mice 3 h before conditioning. The intensity of the electric footshock was 0.5 mA. For some mice, the inverse agonist L-655,708 (0.35 or 0.5 mg kg^−1, i.p.) or vehicle control (10% DMSO, i.p.) was injected 30 min before training. The movement of the mouse was monitored. The percentage of time that each mouse spent in a freezing position was determined using FreezeView software (Version 2.26, Actimetrics Inc, Wilmette, Ill., USA).
We have determined that IL-1β-induced impairment of contextual fear memory can be reversed by pharmacological inhibition of α5GABAA receptors by the inverse agonist MRK-016. Fear conditioning was performed 3 h after injection of IL-1β (1 μg kg^−1, i.p.) in both wild-type (WT) and α5GABAA receptor knock out (Gabra5−/−) mice. Mice were trained to associate a context (contextual fear) and a tone (cued fear) with an aversive electric footshock. 24 h after conditioning each mouse was placed in the training context, and contextual fear memory was measured as the percentage of time spent freezing. Cued fear memory was measured 48 h after training as the percentage of time spent freezing to the conditioned auditory tone in a novel context.

The target in assay [2] is T1, α5GABAARs. Briefly: Tonic inhibitory current, whole cell voltage-clamp in cultured hippocampal neurons. Type of assay: cell-based, mice. Details: endogenous in cells; host or cells: primary embryonic mouse hippocampal neurons, alone or co-cultured with cortical microglia. Conditions: for effect on the tonic current (in words): cultured hippocampal neurons.
Assay [3] concerns the target T2, GABAA receptor α5-subtype (Homo sapiens, UniProt P18507+P31644).
T2 sequence (P31644 32-462): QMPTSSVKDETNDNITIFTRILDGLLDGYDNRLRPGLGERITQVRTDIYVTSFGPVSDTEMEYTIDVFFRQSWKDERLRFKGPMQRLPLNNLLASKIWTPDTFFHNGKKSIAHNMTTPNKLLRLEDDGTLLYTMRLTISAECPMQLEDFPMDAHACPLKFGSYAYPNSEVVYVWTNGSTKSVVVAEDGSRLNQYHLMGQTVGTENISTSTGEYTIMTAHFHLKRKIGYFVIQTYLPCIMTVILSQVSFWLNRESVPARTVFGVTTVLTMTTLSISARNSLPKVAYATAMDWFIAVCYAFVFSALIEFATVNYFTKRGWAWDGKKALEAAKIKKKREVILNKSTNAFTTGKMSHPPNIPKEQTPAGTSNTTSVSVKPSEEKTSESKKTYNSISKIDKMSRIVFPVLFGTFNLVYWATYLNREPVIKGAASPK
T2 sequence (P28472 26-473 partner): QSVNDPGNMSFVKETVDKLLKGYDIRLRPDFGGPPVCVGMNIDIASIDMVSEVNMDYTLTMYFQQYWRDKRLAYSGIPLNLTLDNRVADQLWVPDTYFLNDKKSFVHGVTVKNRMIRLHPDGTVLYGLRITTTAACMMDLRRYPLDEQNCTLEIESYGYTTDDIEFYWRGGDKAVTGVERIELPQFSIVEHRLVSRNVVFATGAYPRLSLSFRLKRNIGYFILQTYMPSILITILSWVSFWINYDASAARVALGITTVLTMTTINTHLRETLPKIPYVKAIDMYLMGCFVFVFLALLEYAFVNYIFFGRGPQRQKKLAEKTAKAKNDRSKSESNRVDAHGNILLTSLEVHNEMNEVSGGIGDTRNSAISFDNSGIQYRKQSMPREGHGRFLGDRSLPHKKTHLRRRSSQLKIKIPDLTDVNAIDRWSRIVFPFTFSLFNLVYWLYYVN
T2 sequence (P18507 40-467 limits assumed): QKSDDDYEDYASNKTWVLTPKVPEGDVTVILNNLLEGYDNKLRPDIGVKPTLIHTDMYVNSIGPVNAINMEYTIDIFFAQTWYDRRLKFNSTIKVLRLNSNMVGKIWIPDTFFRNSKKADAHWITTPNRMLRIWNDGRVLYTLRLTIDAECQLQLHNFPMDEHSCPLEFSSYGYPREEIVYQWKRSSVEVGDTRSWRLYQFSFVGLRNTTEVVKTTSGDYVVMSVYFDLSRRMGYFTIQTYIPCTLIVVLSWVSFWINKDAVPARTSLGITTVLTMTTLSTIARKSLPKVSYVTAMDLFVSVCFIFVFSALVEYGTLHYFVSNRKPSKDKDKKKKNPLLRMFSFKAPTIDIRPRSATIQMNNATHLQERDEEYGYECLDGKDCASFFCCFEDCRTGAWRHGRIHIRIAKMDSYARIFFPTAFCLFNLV
Conditions: inverse agonist selective for the α5-subtype; cited from earlier work.

In assay [4] the test system is α5GABAARs. Briefly: Tonic current in ex vivo hippocampal slices (CA1 pyramidal neurons). The assay is classed as cell-based. Conditions: slices from WT mice treated with IL-1β 1 μg kg^−1 i.p. 2-3 h before sacrifice, n=6. How it is done: Recordings were performed as previously described^29. Hippocampal slices ([…]) were prepared from male 3- to 4-week-old WT mice with a mixed genetic background (C57BL/6/SvEv129). Mice were injected with vehicle (0.1% bovine serum albumin, i.p.) or IL-1β ([…], i.p.) 2-3 hours before sacrifice. To record the tonic GABAergic current, […] GABA was added, and the GABAAR competitive antagonist Bic ([…]) was applied to reveal the tonic current. All cells were recorded at a holding potential of −60 mV.

A further assay deals with postsynaptic GABAARs. Briefly: Whole-cell currents evoked by exogenous GABA (10 μM) in cultured hippocampal neurons. The assay is classed as cell-based, mice. Conditions: IL-1β 20 ng ml−1; GABA 10 μM; n=9.
For another assay, the system named is α1 subunit of GABAARs. Briefly: Hippocampal slice cell surface biotinylation assay. Conditions: IL-1β 20 ng ml−1, 40 min, n=5. The assay is classed as cell-based, C57BL/6 mice. How it is done:
(§1) Cell surface biotinylation assay for α5 and α1 subunits of GABAARs was performed as previously described^25. Hippocampal slices ([…]) from male 10- to 14-week-old C57BL/6 mice were treated with IL-1β (20 ng ml^1, 40 min). Anti-GABAAR α1 and α5 antibodies were obtained from PhosphoSolutions (Aurora, Calif., USA).

A further assay has as its system α5 subunit of GABAARs. Briefly: Hippocampal slice cell surface biotinylation assay. The assay is classed as cell-based, C57BL/6 mice. How it is done:
as §1

Another assay has as its system synaptic GABAARs. Briefly: Miniature inhibitory postsynaptic currents (mIPSCs) in cultured hippocampal neurons. The assay is classed as cell-based, mice. Conditions: IL-1β 20 ng ml^−1.

Entries after “also recorded” stand apart in the source; their conditions may differ.

T1 sequence (Q8BHJ7 32-463 limits assumed): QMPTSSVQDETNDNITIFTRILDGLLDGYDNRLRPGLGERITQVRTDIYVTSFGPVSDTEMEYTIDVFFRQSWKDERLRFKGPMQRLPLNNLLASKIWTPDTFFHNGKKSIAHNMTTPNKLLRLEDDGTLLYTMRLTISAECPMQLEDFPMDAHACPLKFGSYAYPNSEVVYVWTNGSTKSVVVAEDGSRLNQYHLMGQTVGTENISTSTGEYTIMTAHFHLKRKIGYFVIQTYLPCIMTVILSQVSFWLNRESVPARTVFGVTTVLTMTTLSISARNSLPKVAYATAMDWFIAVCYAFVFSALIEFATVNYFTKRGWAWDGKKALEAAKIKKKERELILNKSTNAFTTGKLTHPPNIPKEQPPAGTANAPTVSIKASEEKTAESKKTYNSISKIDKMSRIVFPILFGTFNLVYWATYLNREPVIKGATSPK
T1 sequence (P63080 26-473 partner): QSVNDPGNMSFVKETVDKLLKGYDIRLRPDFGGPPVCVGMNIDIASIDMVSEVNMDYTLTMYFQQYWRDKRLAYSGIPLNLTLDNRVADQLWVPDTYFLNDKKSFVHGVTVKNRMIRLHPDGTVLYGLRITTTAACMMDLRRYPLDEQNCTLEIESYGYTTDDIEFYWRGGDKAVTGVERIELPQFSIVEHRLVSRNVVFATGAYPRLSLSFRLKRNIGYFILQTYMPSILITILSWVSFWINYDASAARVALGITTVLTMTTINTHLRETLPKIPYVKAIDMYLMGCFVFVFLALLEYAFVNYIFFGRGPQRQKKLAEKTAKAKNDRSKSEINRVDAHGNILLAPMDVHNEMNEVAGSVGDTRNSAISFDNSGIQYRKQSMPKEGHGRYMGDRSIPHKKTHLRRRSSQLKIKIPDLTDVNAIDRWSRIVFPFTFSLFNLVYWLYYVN
T1 sequence (P22723 39-474): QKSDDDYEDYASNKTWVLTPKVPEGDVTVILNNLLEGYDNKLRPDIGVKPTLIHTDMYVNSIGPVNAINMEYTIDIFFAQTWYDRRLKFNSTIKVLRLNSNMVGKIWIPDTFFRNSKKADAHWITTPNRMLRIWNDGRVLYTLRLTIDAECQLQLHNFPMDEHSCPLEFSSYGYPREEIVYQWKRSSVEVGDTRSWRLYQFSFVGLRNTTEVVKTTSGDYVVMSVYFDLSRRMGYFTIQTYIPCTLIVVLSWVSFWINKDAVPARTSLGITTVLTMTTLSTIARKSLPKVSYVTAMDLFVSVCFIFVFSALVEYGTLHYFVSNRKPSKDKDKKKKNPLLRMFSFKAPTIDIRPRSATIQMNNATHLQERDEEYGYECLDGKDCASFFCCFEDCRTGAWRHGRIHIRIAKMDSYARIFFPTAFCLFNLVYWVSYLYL

`Cc1cc(-c2nncc3c(C(C)(C)C)c(OCc4ncnn4C)nn23)no1` [MRK-016, 3-(1,1-Dimethylethyl)-7-(5-methyl-3-isoxazolyl)-2-[(1-methyl-1H-1,2,4-triazol-5-yl)methoxy]-pyrazolo[1,5-d][1,2,4]triazine]: at α5GABAARs [1], the “contextual fear memory, WT mice (in words)” value was “restored freezing scores for contextual fear memory to control values” and the “cued fear memory to a conditioned tone stimulus (in words)” value is “did not affect freezing to a conditioned tone stimulus”. Moreover, the “contextual fear memory, WT mice (in words)” value on α5GABAARs [1] (listed as MRK-016A) was “reverses memory deficits associated with inflammation”. Moreover, at α5GABAARs [2], the “effect on the tonic current (in words)” value is “inhibited the tonic current; also recorded: blocks the tonic inhibitory current in hippocampal neurons from mice”. Besides, in assay [3], the half-maximal effective concentration (EC50) is 3 nM.

B1: IL-1β: pro-inflammatory cytokine interleukin-1β; recombinant mouse IL-1β; IL-13 and IL-β in b369 are misprints (protein, UniProt P10749 118-269, looked up)
Interleukin-1 beta: VPIRQLHYRLRDEQQKSLVLSDPYELKALHLNGQNINQQVIFSMSFVQGEPSNDKIPVALGLKGKNLYLSCVMKDGTPTLQLESVDPKQYPKKKMEKRFVFNKIEVKSKVEFESAEFPNWYISTSQAEHKPVFLGNNSGQDIIDFTMESVSS
Turning to B1, the tonic current in the assay with α5GABAARs [4] is given as 44.9±9.4 pA. Further, the “contextual fear memory, Gabra5−/− mice (in words)” value in the assay with α5GABAARs [1] (IL-1β 1 μg kg^−1 i.p. or LPS 125 μg kg^−1 i.p.) is “exhibited no such deficits”. Besides, in the assay with α5GABAARs [1], the “contextual fear memory, WT mice (in words)” value was “showed impairment of contextual fear memory” and the “cued fear memory to a conditioned tone stimulus (in words)” value is “cued fear memory to a conditioned tone stimulus was not affected by IL-1β”. In the assay on postsynaptic GABAARs, the “inhibition of the GABA-evoked peak current” value is listed as 27.8%±2.2% and the “inhibition of the GABA-evoked steady-state current” value is 12.7%±1.5%. In addition, the “increase of the amplitude of the tonic current” value with α5GABAARs [2] (20 ng ml^−1 for 20 min) was 45%. The same molecule registered a tonic current density with α5GABAARs [2] (IL-1β 20 ng ml^−1 20 min with or without SB203,580 20 μM 30 min) of 1.4±0.1 pA pF^−1. The “variance of the noise (root mean square deviation)” value with α5GABAARs [2] (IL-1β 20 ng ml^−1 for 20 min, n=22) was determined as 9.8±0.7 pA. The molecule also displayed a tonic current density with α5GABAARs [2] (IL-1β 20 ng ml^−1 for 20 min, revealed by bicuculline 100 μM, n=22) of 1.6±0.1 pA pF^−1. Moreover, the tonic current density with α5GABAARs [2] (IL-1β 60 ng ml^−1 for 3 h, n=6) turned out to be 2.0±0.3 pA pF^−1. The molecule also showed a tonic current density with α5GABAARs [2] (IL-1β for 12-15 h, n=21) of 1.3±0.6 pA pF^−1. Also, in the assay with α5GABAARs [2], the “effect on the tonic current (in words)” value is “increased the amplitude of the tonic current; also recorded: increased the tonic current recorded in wild-type (WT) neurons but not in neurons isolated from Gabra5−/− mice”. In addition, the “surface expression of α1 subunits (in words)” value in the assay with α1 subunit of GABAARs is listed as “caused no increase in the surface expression of α1 subunits”. Besides, the “α5 subunits expressed on the surface of the neurons” value with α5 subunit of GABAARs (IL-1β 20 ng ml−1, 40 min, n=3) is on record as 183.3%±29.6%. For the same molecule, the “surface expression of α5GABAARs (in words)” value in the assay on α5 subunit of GABAARs (IL-1β 20 ng/ml for 20 or 40 min, preliminary study) is on record as “dramatically increases the surface expression of α5GABAARs”. Also, in the assay on synaptic GABAARs, the “reduction of the amplitude of the mIPSCs” value is 17.3%±3.1% and the “reduction of the charge transfer of the mIPSCs” value was 22.2%±7.0%. Also, in the assay with synaptic GABAARs (IL-1ra 250 ng ml^−1, mean ± S.E.M., n = 6), the “mIPSC Amplitude” value was determined as 24.7 ± 2.1 pA. For the same molecule, in the assay with synaptic GABAARs (IL-1ra 250 ng ml^−1, n = 6), the “mIPSC Area” value amounted to 279.0 pA · ms, the “mIPSC Decay time” value is listed as 14.8 ± 1.1 ms, the “mIPSC Frequency” value is recorded as 3.7 ± 2.3 Hz and the “mIPSC Rise time” value was 2.4 ± 0.1 ms.
